The target in series [1] is T1, LL-37 (cathelicidin antimicrobial peptide) (UniProt P49913 134-170).
T1 chain: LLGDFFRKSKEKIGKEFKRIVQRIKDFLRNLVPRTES
The series is described as follows: filter binding; apparent KD from 50% loss of free aptamer; 100 nM RNA; 1 h on ice, 100 nM aptamer, 0-100 uM LL-37; binding buffer not stated; EMSA loading with 60 mM KCl, 10 mM Tris pH 7.6, 40% glycerol; 7% native PAGE in TBE. The conditions noted are these: label: 5' 32P. Background: A gel shift assay detects complexes by their altered migration in electrophoresis.

The target in series [2] is T1, LL-37 (cathelicidin antimicrobial …). The series is described as follows: EMSA; apparent KD from 50% loss of free aptamer; 100 nM RNA; 1 h on ice, 100 nM aptamer, 0-100 uM LL-37; binding buffer not stated; EMSA loading with 60 mM KCl, 10 mM Tris pH 7.6, 40% glycerol; 7% native PAGE in TBE. As to conditions: label: 5' 32P.

Turning to GGUCUAGCCGGAGGAGUCAGUAAUCGGUAGACC (XNA, 2'-fluoro C and U) [Apt 21-2], the Kd in series [1] and in series [2] was about 2 µM throughout.

(Values after article PMC6491520, “Antimicrobial Peptide LL-37 Facilitates Intracellular Uptake of RNA Aptamer Apt 21-2 Without Inducing an Inflammatory or Interferon Response”.)
